From patent US20200216522A1 (DENALI THERAPEUTICS, published 2020)
Substitutions are numbered along the chain they refer to.

B1: Clone with H1_2-1 (antibody, V domains shown)
VH: EVQLLESGGGLVQPGGSLRLSCAASGFTFSSVGTSWVRQAPGKGLEWVASISGDGGSYIHYADSVKGRFTISRDNSKNTLYLQMNSLRAEDTAVYYCARLPYWGQGTLVTVSS
VL: DIVMTQSPDSLAVSLGERATINCKSSQSLLNSGNQKNYLTWYQQKPGQPPKLLIYWASTRESGVPDRFSGSGSGTDFTLTISSLQAEDVAVYYCQQYNSYPLTFGQGTKVEIKR
notes: based on hu1C7.v2
B2: Clone with H2_6 (antibody, V domains shown)
VH: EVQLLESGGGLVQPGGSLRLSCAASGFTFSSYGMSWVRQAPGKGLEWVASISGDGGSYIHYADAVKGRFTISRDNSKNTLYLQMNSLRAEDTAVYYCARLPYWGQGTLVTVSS
VL: B1 VL
notes: based on hu1C7.v2
B3: Clone with L1_3-11 (antibody, V domains shown)
VH: B1 VH with V32Y, T34M
VL: DIVMTQSPDSLAVSLGERATINCKSSQSLHRSGTQKDYLAWYQQKPGQPPKLLIYWASTRESGVPDRFSGSGSGTDFTLTISSLQAEDVAVYYCQQYNSYPLTFGQGTKVEIK
notes: based on hu1C7.v2
B4: Clone with L1_3-10 (antibody, V domains shown)
VH: B1 VH with V32Y, T34M
VL: B3 VL with D37N, A40V
notes: based on hu1C7.v2
B5: Clone with L1_3-5 (antibody, V domains shown)
VH: B1 VH with V32Y, T34M
VL: B3 VL with R31M, A40V
notes: based on hu1C7.v2
B6: Clone with L1_3-6 (antibody, V domains shown)
VH: B1 VH with V32Y, T34M
VL: B3 VL with R31Q, A40V
notes: based on hu1C7.v2
B7: Clone with H2_1 (antibody, V domains shown)
VH: B1 VH with V32Y, T34M, D54E
VL: B1 VL
notes: based on hu1C7.v2
B8: Clone with L1_3-4 (antibody, V domains shown)
VH: B1 VH with V32Y, T34M
VL: B3 VL with R31N, A40V
notes: based on hu1C7.v2
B9: Clone with H2_3 (antibody, V domains shown)
VH: B1 VH with V32Y, T34M, D54S
VL: B1 VL
notes: based on hu1C7.v2
B10: Clone with H1_2-5 (antibody, V domains shown)
VH: B1 VH with S31K
VL: B1 VL
notes: based on hu1C7.v2
B11: Clone with H1_2-2 (antibody, V domains shown)
VH: B1 VH with S31M
VL: B1 VL
notes: based on hu1C7.v2
B12: Clone with L1_3-9 (antibody, V domains shown)
VH: B1 VH with V32Y, T34M
VL: B3 VL with T34N, A40V
notes: based on hu1C7.v2
B13: Clone with L3_6 (antibody, V domains shown)
VH: B1 VH with V32Y, T34M
VL: B1 VL with N98S
notes: based on hu1C7.v2
B14: Clone with H1_4-5 (antibody, V domains shown)
VH: B1 VH with T28R, S31G, V32Y, T34M
VL: B1 VL
notes: based on hu1C7.v2
B15: Clone with H1_4-2 (antibody, V domains shown)
VH: B1 VH with T28Q, S31G, V32P, T34M
VL: B1 VL
notes: based on hu1C7.v2
B16: Clone with L1_3, L3, and H1_HCv2 (antibody, V domains shown)
VH: B1 VH with S31Q, T34M
VL: B3 VL with A40V
B17: Clone with H2_4 (antibody, V domains shown)
VH: B1 VH with V32Y, T34M, G55A
VL: B1 VL
notes: based on hu1C7.v2
B18: Clone with H2_2 (antibody, V domains shown)
VH: B1 VH with V32Y, T34M, D54T
VL: B1 VL
notes: based on hu1C7.v2
B19: Clone with L3_7 (antibody, V domains shown)
VH: B1 VH with V32Y, T34M
VL: B1 VL with S99A
notes: based on hu1C7.v2
B20: Clone with H1_4-4 (antibody, V domains shown)
VH: B1 VH with T28R, V32P, T34M
VL: B1 VL
notes: based on hu1C7.v2
B21: Clone with H1_2-4 (antibody, V domains shown)
VH: B1 VH with S31L
VL: B1 VL
notes: based on hu1C7.v2
B22: Clone with L1_3-1 (antibody, V domains shown)
VH: B1 VH with V32Y, T34M
VL: B3 VL with H30V, A40V
notes: based on hu1C7.v2
B23: Clone with L1_5 (antibody, V domains shown)
VH: B1 VH with V32Y, T34M
VL: B1 VL with N31S
notes: based on hu1C7.v2
B24: Clone with L1_6 (antibody, V domains shown)
VH: B1 VH with V32Y, T34M
VL: B1 VL with N31Q
notes: based on hu1C7.v2
B25: Clone with H1_4-3 (antibody, V domains shown)
VH: B1 VH with T28M, S31G, V32P, T34M
VL: B1 VL
notes: based on hu1C7.v2
B26: Clone with L3_5 (antibody, V domains shown)
VH: B1 VH with V32Y, T34M
VL: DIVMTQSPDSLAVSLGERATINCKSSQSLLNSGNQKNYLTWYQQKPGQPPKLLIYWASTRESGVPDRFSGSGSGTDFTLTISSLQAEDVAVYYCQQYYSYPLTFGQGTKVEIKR
notes: based on hu1C7.v2
B27: Clone with L1_3-2 (antibody, V domains shown)
VH: B1 VH with V32Y, T34M
VL: B3 VL with H30L, A40V
notes: based on hu1C7.v2
B28: Clone with L1_7 (antibody, V domains shown)
VH: B1 VH with V32Y, T34M
VL: B1 VL with S32A
notes: based on hu1C7.v2
B29: Clone with H2_5 (antibody, V domains shown)
VH: B1 VH with V32Y, T34M, D63S
VL: B1 VL
notes: based on hu1C7.v2
B30: Clone with L1_3-3 (antibody, V domains shown)
VH: B1 VH with V32Y, T34M
VL: B3 VL with R31Y, A40V
notes: based on hu1C7.v2
B31: Clone with H1_4-1 (antibody, V domains shown)
VH: B1 VH with S31G, V32P, T34M
VL: B1 VL
notes: based on hu1C7.v2
B32: Clone with L1_3-7 (antibody, V domains shown)
VH: B1 VH with V32Y, T34M
VL: B3 VL with R31K, A40V
notes: based on hu1C7.v2
B33: Clone with H1_2-3 (antibody, V domains shown)
VH: B1 VH with S31Q
VL: B1 VL
notes: based on hu1C7.v2
B34: Clone with L1_3-8 (antibody, V domains shown)
VH: B1 VH with V32Y, T34M
VL: B3 VL with R31L, A40V
notes: based on hu1C7.v2
B35: Clone with L1_4 (antibody, V domains shown)
VH: B1 VH with V32Y, T34M
VL: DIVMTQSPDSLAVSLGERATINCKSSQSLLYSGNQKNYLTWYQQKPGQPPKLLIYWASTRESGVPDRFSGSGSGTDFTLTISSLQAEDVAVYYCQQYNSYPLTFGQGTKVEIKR
notes: based on hu1C7.v2

Molecular target: T1, full-length human Tau (Tau441; 2N4R), recombinant (human, UniProt P10636 1-758)
T1 construct: made in E. coli, His6-Smt3 tag removed; biotinylated through amines for Octet and phage work; also called r-Tau; recombinant Tau
Test: SPR Biacore
Experimental: IgG was purified with protein A affinity chromatography. The affinity of each hulC7 IgG variant for r-Tau was determined by surface plasmon resonance using a Biacore™ T200 instrument. Biacore™ Series S CM5 sensor chips were immobilized with monoclonal mouse anti-human IgG (Fc) antibody (Human antibody capture kit from GE Healthcare). Serial 3-fold dilutions of each hulC7 variant were injected at a flow rate of […]. Each sample was analyzed with 3-minute association and 10-minute dissociation. After each injection, the chip was regenerated using 3 M MgCl₂. Binding response was corrected by subtracting the RU from a flow cell capturing an irrelevant IgG at similar density. A 1:1 Languir model of simultaneous fitting of kₒₙ and koff was used for kinetics analysis.
A further round of affinity maturation was performed by mutating certain amino acids in selected CDR-H1, CDR-L1, and CDR-L3 sequences from Table 9A, as well as the sequence of CDR-H2 (SEQ ID NO:23) of hulC7.v2. Sequence changes were identified in each CDR (Table 9B). Binding affinities were evaluated using Biacore™ (Table 10B).

T1 sequence (P10636 other isoform, or with tags, fused parts or gaps limits assumed): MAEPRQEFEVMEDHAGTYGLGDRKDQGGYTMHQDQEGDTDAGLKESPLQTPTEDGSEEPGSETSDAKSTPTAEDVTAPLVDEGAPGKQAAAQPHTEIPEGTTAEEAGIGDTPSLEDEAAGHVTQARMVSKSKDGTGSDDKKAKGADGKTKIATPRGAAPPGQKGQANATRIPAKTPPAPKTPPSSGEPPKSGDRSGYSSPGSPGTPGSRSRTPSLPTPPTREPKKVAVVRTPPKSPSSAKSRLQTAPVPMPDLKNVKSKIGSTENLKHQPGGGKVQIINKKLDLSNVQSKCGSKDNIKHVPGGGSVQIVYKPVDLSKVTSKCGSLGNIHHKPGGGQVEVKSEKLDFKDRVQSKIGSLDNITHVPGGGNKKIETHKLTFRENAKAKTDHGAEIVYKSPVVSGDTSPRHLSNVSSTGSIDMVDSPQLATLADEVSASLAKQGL

Binder	Kd [nM]	koff [s⁻¹]	kon [M⁻¹ s⁻¹]
B1	1.3	0.000183	141000
B2	3.79	0.00175	462000
B3	0.231	0.000223	965000
B4	0.157	0.000147	937000
B5	0.419	0.000442	1.05e+06
B6	0.349	0.000379	1.09e+06
B7	8.28	0.00369	446000
B8	0.206	0.00031	1.5e+06
B9	9.68	0.00408	422000
B10	0.578	0.000144	249000
B11	0.759	9.71e-05	128000
B12	0.136	0.000154	1.13e+06
B13	0.69	0.00057	826000
B14	0.591	0.000163	276000
B15	0.416	0.000128	308000
B16	0.119	0.000116	982000
B17	6.4	0.00309	484000
B18	9.11	0.00378	415000

Binder	Kd [nM]	koff [s⁻¹]	kon [M⁻¹ s⁻¹]
B19	1.19	0.000817	685000
B20	3.81	0.00126	331000
B21	1.41	0.000151	107000
B22	0.211	0.000213	1.01e+06
B23	1.39	0.000885	636000
B24	0.665	0.00078	1.17e+06
B25	0.502	0.000203	404000
B26	0.928	0.000787	848000
B27	0.13	0.000143	1.1e+06
B28	0.651	0.000719	1.1e+06
B29	3.79	0.00176	465000
B30	0.078	0.000214	2.72e+06
B31	0.837	0.000144	172000
B32	0.275	0.000308	1.12e+06
B33	0.477	9.39e-05	197000
B34	0.51	0.000391	767000
B35	0.577	0.000662	1.15e+06
